Laboratory results from the domain aggregation screens of Martell et al. (2025).

Experiment: soluble fraction after stress (log2 fold change); higher = more stays soluble; pooled small domains, quantitative proteomics
Settings: stress: 50 degC
In short: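 Quantitative proteomics served as the high-throughput read-out for pooled custom libraries of small protein domains. Each was stressed at 50°C. Aggregation propensity is expressed as the base-two log fold change in soluble protein after stress. A higher value means a larger share of the protein remains in solution.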

| Sequence | soluble fraction (log2) |
| --- | --- |
| HMPKLTKEEIQFIDNYLKNSGVEYIDTRAEVVDHVASEIESRLSANNTTNFYEEFKVYMVQHKETLLK | -0.49 |
| HMNTYVLPDALKSQLSVEDTGMLTKQLQALPETLAEGVLDSLSQMLSKNTLQNPVGWMLAVMKRAREGNFN | -0.00363 |
| HMPKDMAKRASILTAASKLFVQHGYGGVSMDQIAAEAGVSKLTVYSHYGDKDSLFAAAVQAH | -0.328 |
| HMFNGDPTTRESILASARAEIDQYGIIGLRLSAVAEKAQVSVPLIYKYFEDRDGLLAVVLGDW | -1.27 |
| HMGGVEWLTHPIGPRDSLQVLARAGLEARPTSDGDYEIYGQERWPQRDQARLMGWLRRFGQWVWQALYDK | -0.378 |
| HMIDTTKILPGQEFKNMQELSVALTGQKMPAGKGYVLQQEKFKLYFSWKKITGTHKLIIDEIYEEPKT | -3.44 |
| HMHPLFRVVLAGEPNGVGLDDWLTRHEAELINGPSAIGVLTVKIAMGRRSFETVLDEIRADGETIFVEPV | -2.66 |
| HMQVTPQVLRLLDVLGDKELSLRQIAEALGLSDRKNIMRNYVVPALDSGRVVRTVPNKPNSRFQKYRK | -0.404 |
| HMGESYGPVRRGETLWSIAEKVKPAGVSTQKELAAIYAANPQAFIRGDINLLKAGAELRLPSPEAL | 0.172 |
| HMSDPASLQRRLMSDPELTARILDSPFTRSLLDDPNLLRQMVNANPQLRRAMDANPQLRHAL | -0.21 |
| HMQGAARGMLFAQAQRWMTKFRIDPQQADRITQAALDPAQTDAILREVRRGYGPSAERALRGIIRRARRA | -0.968 |
| HMFIQLSQEEKKVVEGLQQRSKTHLDALALEVGQNISKTAAMLMELEMKGVVRALPGKYYEL | -0.888 |
| HMDIASNQIQGIKDSVGGDENYSKMVAWALESLPAEEVKAFNDLTETANAPAIKMAVQGLYSQYNNAM | 0.264 |
| HMSWAGRRSLAALEARYRDETGISNLKIKHNGVLGYHIEVPSKSADKLMAPDSGFTHRQTLAGAVR | 0.0529 |
| HMPSLAVYPNPVKDILNIATDKPVHSIRIYNVYGSEVLRAADTNRIDVSHLPAGVYMVSADGKVTRIIK | -0.462 |
| HMDSTTHALALVRTLPRDQAEAVLLRVVADLDYADVAEIMGRSPGAVRVLVHRGLRRLEQELATRRT | -0.465 |
| HMTATSKKAAWDEVNKIFPTDYERSAAESERAGYAIFRSTAEGVNAWISDLGDRLEINLPDGKTVNIWIEE | -0.282 |
| HMSGMNSDHRVNGNIHTFLIQHDLGTKWSVFTEQLLKQVFRSFLPDKELNFQTTDSTVILKVSLGSDFNEH | -0.0505 |
| HMANYHDIAADLRSKINHGFYEEEKKLPKQSELAADYQTSRVTIQKALNILQMEGIIYGKKGTGTFIRDSY | -0.214 |

| Sequence | soluble fraction (log2) |
| --- | --- |
| HMDFNDPTMEKSLVELPAMSNSTLRDLSENNIKKLEELAEMSVGELMDIASKISESDASALIMEARKPWF | -0.137 |
| HMDRKFFFNEQYEDYINSDLKVKFMNDSGSKKSFQGELTKVTPSDLFLESEKESVKVPFSSIIQANLI | -0.147 |
| HMKSNNPLDHVRVKQRGASWAYYFEKAKVDGKRRRGEGGGYATEQDARMAGVEAYNAYIGGGAK | -0.0068 |
| HMSVLSEQIKEQLMEDIFHKKYKAGDRIVESALARELGVSQASVREALRSLIAMGFLENEPFKGITVR | 0.0703 |
| HMKPTVKGHFTRKESNVGGYADVRGWGVAGTPSMMANQSKDTRRFSTLIVPGRSVNVHPSPTKEAIIWWQS | -0.0091 |
| HMNTAALSLQRRNEIKKWLLEEKTLTVAALSNRFNVTYETIRRDLEILEKEGFLKKVYGGAALNERV | -0.0358 |
| HMVPISGADFEKLSDYILQKAGAGSIQVKELLAGLKGMHEKNLWKAIDYLLAEEKIRIDKGGNISVK | -0.00539 |
| HMTAGTTALNKLQQGMSTQQVQAALGTPSDRTVKESGVELWKYYYPYENMLLYLKFRDGHLVSFGTN | -0.0161 |
| HMNGTGSVYKLSGKRRNPWRAVVTNGWAYNEEKGKLVQNRVTIGYYHTRDEAIQAIANYNSSP | -1.52 |
| HMELPVAVPHTELSPEALRGVVESFVLREGTDYGERDVPFEAKVAQVIRQLERGEARIMFDPVTQSVQIVT | 0.102 |
| HMQQRTVEHVDTAVEALALSIGERAGVDLPYMAHLTGKTQEDLIEDLTGVIFPVPGTEPLRYVTADDYLS | 0.028 |
| HMLSPPWYEYHRKVQAMFGRDPEVHIKDLDDLGDGKFSYMILVYNKEKAEAIKAILPQKVEMGNVTIETAI | 0.361 |
| HMESEIYKKIEKSRLLELAFTKSQKGDLTGAYDLYYQAFTKYDVIADNQNRYFEDFISLIRRKQQQD | -0.739 |
| HMDAMLSEQLREKRGELLIEVDAIAGNALRWATLSAEQQDAWAVYRQALLDVPQQAGFPNDVVWPINPN | -0.352 |
| HMLTTVAAQRAALHQEEDITKLREIILKLVPFWGLDGGAYADKETSIQLERQYRESFDQAVSAARRSGQA | -0.303 |
| HMSTMTDAQRHLFANKLSQLPEMGKYSHGTESYQQFAVRIAEMLQTPKKFKELYPYLQKVGFKA | 0.00319 |
| HMFEERKKDWNLTGLLDDVIRRYIHQLTNDELNEINLEKSSGMPDEEIKNGIKLPLAVMQQRRETWGS | -0.16 |
| HMVMETLAERINTALQTKGLSVNALARRVGVSYPAMRKITKGETLNPKFLFEIAEALGVSVEWLKTGEGSP | -0.372 |
